Assay results taken from US20080124335A1 (NATIONAL CEREBRAL AND CARDIOVASCULAR CENTER, published 2008).
No end group written: not given here.

Tests used:
human TGR1 [1] = target: T1, human TGR1 (human, UniProt Q9GZQ4 1-415); assay: radioligand competition: crude membrane fraction (10 µg) of CHO cells expressing human TGR1, 50 pM [^125I-Tyr^0]-NMS, filtration
Protocol: (§1) The receptor binding test was conducted by an improvement of the Gottschall, et al. method (Gottschall, P. E., et al., Endocrinology, 127, 272, 1990). A crude cell membrane fraction was prepared from human FM-3 or human TGR1-expressed CHO cells. Also, human NMS ([Tyr⁰]-NMS) added with Tyr at the N terminus was radioactively labeled with ¹²⁵I and then purified on HPLC. The crude cell membrane fraction (10 μg) and the radiolabeled peptide (50 pM) were reacted at room temperature for 2 hours in a buffer supplemented with 0.05% CHAPS and 1% BSA in the presence of a competitive peptide. The reaction product was filtered to separate the bound from the unbound radiolabeled peptide. The radioactivity was measured with a TopCount liquid scintillation counter (Packard).

human FM-3 [2] = target: T2, human FM-3 (human, UniProt Q9HB89 24-426); assay: radioligand competition: crude membrane fraction (10 µg) of CHO cells expressing human FM-3, 50 pM [^125I-Tyr^0]-NMS, filtration
T2 sequence: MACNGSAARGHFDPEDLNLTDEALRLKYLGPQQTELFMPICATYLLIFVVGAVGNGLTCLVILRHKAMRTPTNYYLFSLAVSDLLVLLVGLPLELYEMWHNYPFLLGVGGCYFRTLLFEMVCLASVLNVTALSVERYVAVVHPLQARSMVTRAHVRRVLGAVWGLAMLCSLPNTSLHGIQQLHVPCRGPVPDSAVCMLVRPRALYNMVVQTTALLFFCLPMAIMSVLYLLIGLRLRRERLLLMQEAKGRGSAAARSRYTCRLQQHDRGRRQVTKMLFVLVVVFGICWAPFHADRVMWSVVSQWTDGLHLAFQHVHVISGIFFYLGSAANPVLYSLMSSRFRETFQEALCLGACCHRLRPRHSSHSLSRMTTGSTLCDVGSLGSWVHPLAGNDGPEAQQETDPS
Protocol: as §1

human TGR1 [3] = target: T1, human TGR1; assay: cell-based or functional assay
human FM-3 [4] = target: T2, human FM-3; assay: cell-based or functional assay

T1 sequence (Q9GZQ4 other isoform, or with tags, fused parts or gaps): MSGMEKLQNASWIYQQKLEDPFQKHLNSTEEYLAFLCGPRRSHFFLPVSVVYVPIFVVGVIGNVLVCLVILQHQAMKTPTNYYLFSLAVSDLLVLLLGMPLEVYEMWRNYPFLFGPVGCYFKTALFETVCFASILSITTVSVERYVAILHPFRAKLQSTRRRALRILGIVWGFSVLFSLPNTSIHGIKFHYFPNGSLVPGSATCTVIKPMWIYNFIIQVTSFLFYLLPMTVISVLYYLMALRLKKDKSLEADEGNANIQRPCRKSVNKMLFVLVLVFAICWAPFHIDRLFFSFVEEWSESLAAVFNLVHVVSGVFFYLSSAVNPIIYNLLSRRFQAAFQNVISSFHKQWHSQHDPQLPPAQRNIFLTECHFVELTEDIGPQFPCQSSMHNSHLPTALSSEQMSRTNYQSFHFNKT

- IC50 (human TGR1 [1]): 0.1 nM
- IC50 (human FM-3 [2]): 1.2 nM
- intracellular Ca ion level increase (calcium-mobilization assay, FLIPR), EC50 (human TGR1 [3]): 91 pM
- intracellular Ca ion level increase (calcium-mobilization assay, FLIPR), EC50 (human FM-3 [4]): 65 pM
Binder: ILQRGSGTAAVDFTKKDHTATWGRPFFLFRPRN (ends and bridges not checked, also called human NMS; NMS) [human neuromedin S]
